The values below come from PMC12363175.

In the experiment the target is BANAL-20-52 S ectodomain with stabilizing mutations. Description: AUC.

Chain of peptidase domain (PD) of hACE2 (Q9BYF1 19-615): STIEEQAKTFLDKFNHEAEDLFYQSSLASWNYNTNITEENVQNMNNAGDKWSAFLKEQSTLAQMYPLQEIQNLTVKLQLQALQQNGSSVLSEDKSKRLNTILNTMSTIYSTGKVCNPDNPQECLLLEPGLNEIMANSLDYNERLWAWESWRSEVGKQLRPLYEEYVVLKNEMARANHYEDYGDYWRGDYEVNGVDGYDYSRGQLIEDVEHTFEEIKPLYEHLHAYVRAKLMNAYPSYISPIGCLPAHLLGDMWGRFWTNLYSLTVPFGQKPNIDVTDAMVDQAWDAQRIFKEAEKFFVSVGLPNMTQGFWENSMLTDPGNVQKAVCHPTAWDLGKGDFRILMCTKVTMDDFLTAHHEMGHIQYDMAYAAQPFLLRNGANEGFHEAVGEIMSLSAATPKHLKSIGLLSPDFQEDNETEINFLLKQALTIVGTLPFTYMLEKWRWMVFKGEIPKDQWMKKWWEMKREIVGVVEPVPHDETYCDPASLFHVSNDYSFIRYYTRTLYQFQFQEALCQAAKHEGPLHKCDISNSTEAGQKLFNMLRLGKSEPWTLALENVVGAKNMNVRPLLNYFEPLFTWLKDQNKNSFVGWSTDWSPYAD

Take “peptidase domain (PD) of hACE2 (from UniProt Q9BYF1 19-615) (domain or fragment)”: the stoichiometry N (hACE2 molecules per S trimer) was found to be 2.
